Article PMC2879331 (Clinical cancer research : an official journal of the …, 2008)

Target: the molecule itself
Assay: non-reducing SDS-PAGE

B1: matrix metalloprotease 9 (MMP-9) (enzyme)
chain: not shown
stoichiometry N: 2
